According to the supplement of paper PMC5998384:

Columns and labels:
[1] = tested on: HeLa Kyoto; experiment: thermal stability score vs G1/S (z-score of summed log2 fold changes over temperatures); higher = more thermally stable than in G1/S
[2] = tested on: HeLa Kyoto; experiment: solubility in G1/S (NP-40 vs SDS abundance) (log2 ratio); higher = more soluble; conditions: cell cycle stage: G1/S
[3] = tested on: HeLa Kyoto; experiment: melting temperature (median over replicates), in situ; higher = more thermally stable
[4] = tested on: HeLa Kyoto; experiment: solubility change mitosis vs G1/S (difference of NP-40 vs SDS log2 ratios) (log2 ratio difference); higher = more soluble in mitosis
[5] = cell cycle stage: early G1 (4.5 h after nocodazole release)
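For melting temperature (median over replicates), in situ in this document: HeLa Kyoto cells synchronized by double thymidine or nocodazole block, proteins quantified by TMT10plex mass spectrometry, three independent biological replicates.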
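For solubility change mitosis vs G1/S (difference of NP-40 vs SDS log2 ratios) in this document: synchronized HeLa Kyoto cells (double thymidine block for G1/S, nocodazole release for mitosis), protein amounts in NP-40 versus SDS lysates quantified by mass spectrometry, three biological replicates.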
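For solubility in G1/S (NP-40 vs SDS abundance) in this document: HeLa Kyoto cells arrested at G1/S by double thymidine block, proteins quantified by TMT10plex mass spectrometry in mild NP-40 versus SDS extracts, three biological replicates.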
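For thermal stability score vs G1/S (z-score of summed log2 fold changes over temperatures) in this document: synchronized HeLa Kyoto cells, proteins quantified by TMT10plex mass spectrometry, three biological replicates, mitosis taken 0.5 h after nocodazole release, G1/S directly after double thymidine block.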

Sequence of IRF2BP1 (chain, as listed by the source): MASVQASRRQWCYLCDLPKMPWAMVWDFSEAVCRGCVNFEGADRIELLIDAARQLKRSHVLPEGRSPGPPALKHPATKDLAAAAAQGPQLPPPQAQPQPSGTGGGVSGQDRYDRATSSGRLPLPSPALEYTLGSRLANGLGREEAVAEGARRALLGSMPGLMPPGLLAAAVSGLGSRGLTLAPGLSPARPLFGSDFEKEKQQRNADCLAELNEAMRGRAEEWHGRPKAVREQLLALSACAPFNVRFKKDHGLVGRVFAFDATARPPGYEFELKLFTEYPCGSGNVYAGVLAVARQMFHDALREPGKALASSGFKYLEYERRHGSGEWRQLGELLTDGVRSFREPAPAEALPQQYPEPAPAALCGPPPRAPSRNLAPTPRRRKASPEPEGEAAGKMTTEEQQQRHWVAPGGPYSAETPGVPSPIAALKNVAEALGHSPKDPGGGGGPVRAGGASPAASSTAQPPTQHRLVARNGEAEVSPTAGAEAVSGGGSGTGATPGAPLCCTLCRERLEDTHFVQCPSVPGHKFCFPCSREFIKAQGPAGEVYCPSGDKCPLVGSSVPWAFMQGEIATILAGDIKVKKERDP

| Substance | thermal stability score [1, 5] | thermal stability score ([1]; cell cycle stage: mitosis) | solubility in G1/S (log2) [2] | melting temperature ([3]; cell cycle stage: G1/S) [°C] | melting temperature ([3]; cell cycle stage: mitosis) [°C] | solubility change mitosis (log2) [4] |
| --- | --- | --- | --- | --- | --- | --- |
| MAAAALRSGWCRCPRRCLGSGIQFLSSHNLPHGSTYQMRRPGGELPLSKSYSSGNRKGFLSGLLDNVKQELAKNKEMKESIKKFRDEARRLEESDVLQEARRKYKTIESETVRTSEVLRKKLGELTGTVKESLHEVSKSDLGRKIKEGVEEAAKTAKQSAESVSKGGEKLGRTAAFRALSQGVESVKKEIDDSVLGQTGPYRRPQRLRKRTEFAGDKFKEEKVFEPNEEALGVVLHKDSKWYQQWKDFKENNVVFNRFFEMKMKYDESDNAFIRASRALTDKVTDLLGGLFSKTEMSEVLTEILRVDPAFDKDRFLKQCENDIIPNVLEAMISGELDILKDWCYEATYSQLAHPIQQAKALGLQFHSRILDIDNVDLAMGKMMEQGPVLIITFQAQLVMVVRNPKGEVVEGDPDKVLRMLYVWALCRDQDELNPYAAWRLLDISASSTEQIL [TIMM44] | 0.205 | -0.742 | 0.144 | 52 | 51.6 | -0.0435 |
| IRF2BP1 | 1.4 | 3.22 | 0.316 | 46.9 | 49.5 | -0.0595 |
| MRGPPAWPLRLLEPPSPAEPGRLLPVACVWAAASRVPGSLSPFTGLRPARLWGAGPALLWGVGAARRWRSGCRGGGPGASRGVLGLARLLGLWARGPGSCRCGAFAGPGAPRLPRARFPGGPAAAAWAGDEAWRRGPAAPPGDKGRLRPAAAGLPEARKLLGLAYPERRRLAAAVGFLTMSSVISMSAPFFLGKIIDVIYTNPTVDYSDNLTRLCLGLSAVFLCGAAANAIRVYLMQTSGQRIVNRLRTSLFSSILRQEVAFFDKTRTGELINRLSSDTALLGRSVTENLSDGLRAGAQASVGISMMFFVSPNLATFVLSVVPPVSIIAVIYGRYLRKLTKVTQDSLAQATQLAEERIGNVRTVRAFGKEMTEIEKYASKVDHVMQLARKEAFARAGFFGATGLSGNLIVLSVLYKGGLLMGSAHMTVGELSSFLMYAFWVGISIGGLSSFYSELMKGLGAGGRLWELLEREPKLPFNEGVILNEKSFQGALEFKNVHFAYPARPEVPIFQDFSLSIPSGSVTALVGPSGSGKSTVLSLLLRLYDPASGTISLDGHDIRQLNPVWLRSKIGTVSQEPILFSCSIAENIAYGADDPSSVTAEEIQRVAEVANAVAFIRNFPQGFNTVVGEKGVLLSGGQKQRIAIARALLKNPKILLLDEATSALDAENEYLVQEALDRLMDGRTVLVIAHRLSTIKNANMVAVLDQGKITEYGKHEELLSKPNGIYRKLMNKQSFISA [ABCB10] | 0.476 | -0.874 | -0.0973 | 53.8 | 54 | -0.029 |
| MEQPPAPKSKLKKLSEDSLTKQPEEVFDVLEKLGEGSYGSVFKAIHKESGQVVAIKQVPVESDLQEIIKEISIMQQCDSPYVVKYYGSYFKNTDLWIVMEYCGAGSVSDIIRLRNKTLIEDEIATILKSTLKGLEYLHFMRKIHRDIKAGNILLNTEGHAKLADFGVAGQLTDTMAKRNTVIGTPFWMAPEVIQEIGYNCVADIWSLGITSIEMAEGKPPYADIHPMRAIFMIPTNPPPTFRKPELWSDDFTDFVKKCLVKNPEQRATATQLLQHPFIKNAKPVSILRDLITEAMEIKAKRHEEQQRELEEEEENSDEDELDSHTMVKTSVESVGTMRATSTMSEGAQTMIEHNSTMLESDLGTMVINSEDEEEEDGTMKRNATSPQVQRPSFMDYFDKQDFKNKSHENCNQNMHEPFPMSKNVFPDNWKVPQDGDFDFLKNLSLEELQMRLKALDPMMEREIEELRQRYTAKRQPILDAMDAKKRRQQNF [STK3] | 1.31 | 1.36 | 0.0428 | 53 | 53.3 | -0.13 |
| MACRGGAGNGHRASATLSRVSPGSLYTCRTRTHNICMVSDFFYPNMGGVESHIYQLSQCLIERGHKVIIVTHAYGNRKGIRYLTSGLKVYYLPLKVMYNQSTATTLFHSLPLLRYIFVRERVTIIHSHSSFSAMAHDALFHAKTMGLQTVFTDHSLFGFADVSSVLTNKLLTVSLCDTNHIICVSYTSKENTVLRAALNPEIVSVIPNAVDPTDFTPDPFRRHDSITIVVVSRLVYRKGIDLLSGIIPELCQKYPDLNFIIGGEGPKRIILEEVRERYQLHDRVRLLGALEHKDVRNVLVQGHIFLNTSLTEAFCMAIVEAASCGLQVVSTRVGGIPEVLPENLIILCEPSVKSLCEGLEKAIFQLKSGTLPAPENIHNIVKTFYTWRNVAERTEKVYDRVSVEAVLPMDKRLDRLISHCGPVTGYIFALLAVFNFLFLIFLRWMTPDSIIDVAIDATGPRGAWTNNYSHSKRGGENNEISETR [PIGA] | -0.383 | -0.682 | -0.107 | 55 | 53.6 | -0.133 |
| MRRLPRALLLQLRLALLVAAGAPEVLVSAPRSLVWGPGLQAAVVLPVRYFYLQAVNSEGQNLTRSPAGETPFKVVVKSLSPKELVRIHVPKPLDRNDGTFLMRYRMYETVDEGLKIEVLYGDEHVAQSPYILKGPVYHEYCECPEDPQAWQKTLSCPTKEPQIAKDFASFPSINLQQMLKEVPKRFGDERGAIVHYTILNNHVYRRSLGKYTDFKMFSDEILLSLTRKVLLPDLEFYVNLGDWPLEHRKVNGTPSPIPIISWCGSLDSRDVVLPTYDITHSMLEAMRGVTNDLLSIQGNTGPSWINKTERAFFRGRDSREERLQLVQLSKENPQLLDAGITGYFFFQEKEKELGKAKLMGFFDFFKYKYQVNVDGTVAAYRYPYLMLGDSLVLKQDSPYYEHFYMALEPWKHYVPIKRNLSDLLEKVKWAKENDEEAKKIAKEGQLMARDLLQPHRLYCYYYQVLQKYAERQSSKPEVRDGMELVPQPEDSTAICQCHRKKPSREEL [KDELC2] | 4.98 | 4.71 | 0.282 | 53.8 | 54.9 | -0.048 |
